Assay results as given in paper PMC7708043 (Nucleic Acids Research, 2020).

T1: mEGFP-ALC1 (UniProt Q86WJ1 1-897)
T1 sequence (looked up): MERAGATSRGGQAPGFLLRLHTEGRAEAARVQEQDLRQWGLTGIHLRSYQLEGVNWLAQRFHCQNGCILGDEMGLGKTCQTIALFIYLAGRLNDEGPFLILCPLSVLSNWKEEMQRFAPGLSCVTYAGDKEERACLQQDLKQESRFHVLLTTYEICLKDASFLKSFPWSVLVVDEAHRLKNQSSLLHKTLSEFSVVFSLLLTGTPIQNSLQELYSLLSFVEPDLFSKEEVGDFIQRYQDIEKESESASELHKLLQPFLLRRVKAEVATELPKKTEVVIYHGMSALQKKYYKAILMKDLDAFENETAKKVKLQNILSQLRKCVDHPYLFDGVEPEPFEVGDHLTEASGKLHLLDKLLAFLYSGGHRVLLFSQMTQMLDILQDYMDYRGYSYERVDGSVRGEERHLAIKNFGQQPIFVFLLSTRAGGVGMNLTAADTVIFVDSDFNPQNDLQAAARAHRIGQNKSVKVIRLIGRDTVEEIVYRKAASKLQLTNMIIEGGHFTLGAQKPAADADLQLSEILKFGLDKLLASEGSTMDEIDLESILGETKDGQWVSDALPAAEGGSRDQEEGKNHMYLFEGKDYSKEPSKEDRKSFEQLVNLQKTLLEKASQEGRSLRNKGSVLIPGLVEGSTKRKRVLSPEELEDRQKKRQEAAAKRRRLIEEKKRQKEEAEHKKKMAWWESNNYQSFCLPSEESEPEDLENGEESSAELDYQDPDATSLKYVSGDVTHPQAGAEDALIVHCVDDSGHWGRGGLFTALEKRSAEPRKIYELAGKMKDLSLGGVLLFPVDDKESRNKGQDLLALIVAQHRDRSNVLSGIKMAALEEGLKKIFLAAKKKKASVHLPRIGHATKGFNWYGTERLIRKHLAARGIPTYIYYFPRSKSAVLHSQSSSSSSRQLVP

B1: mCherry-TRIM33 (natural protein, UniProt Q9UPN9 1-1127, looked up)
chain: MAENKGGGEAESGGGGSGSAPVTAGAAGPAAQEAEPPLTAVLVEEEEEEGGRAGAEGGAAGPDDGGVAAASSGSAQAASSPAASVGTGVAGGAVSTPAPAPASAPAPGPSAGPPPGPPASLLDTCAVCQQSLQSRREAEPKLLPCLHSFCLRCLPEPERQLSVPIPGGSNGDIQQVGVIRCPVCRQECRQIDLVDNYFVKDTSEAPSSSDEKSEQVCTSCEDNASAVGFCVECGEWLCKTCIEAHQRVKFTKDHLIRKKEDVSESVGASGQRPVFCPVHKQEQLKLFCETCDRLTCRDCQLLEHKEHRYQFLEEAFQNQKGAIENLLAKLLEKKNYVHFAATQVQNRIKEVNETNKRVEQEIKVAIFTLINEINKKGKSLLQQLENVTKERQMKLLQQQNDITGLSRQVKHVMNFTNWAIASGSSTALLYSKRLITFQLRHILKARCDPVPAANGAIRFHCDPTFWAKNVVNLGNLVIESKPAPGYTPNVVVGQVPPGTNHISKTPGQINLAQLRLQHMQQQVYAQKHQQLQQMRMQQPPAPVPTTTTTTQQHPRQAAPQMLQQQPPRLISVQTMQRGNMNCGAFQAHQMRLAQNAARIPGIPRHSGPQYSMMQPHLQRQHSNPGHAGPFPVVSVHNTTINPTSPTTATMANANRGPTSPSVTAIELIPSVTNPENLPSLPDIPPIQLEDAGSSSLDNLLSRYISGSHLPPQPTSTMNPSPGPSALSPGSSGLSNSHTPVRPPSTSSTGSRGSCGSSGRTAEKTSLSFKSDQVKVKQEPGTEDEICSFSGGVKQEKTEDGRRSACMLSSPESSLTPPLSTNLHLESELDALASLENHVKIEPADMNESCKQSGLSSLVNGKSPIRSLMHRSARIGGDGNNKDDDPNEDWCAVCQNGGDLLCCEKCPKVFHLTCHVPTLLSFPSGDWICTFCRDIGKPEVEYDCDNLQHSKKGKTAQGLSPVDQRKCERLLLYLYCHELSIEFQEPVPASIPNYYKIIKKPMDLSTVKKKLQKKHSQHYQIPDDFVADVRLIFKNCERFNEMMKVVQVYADTQEINLKADSEVAQAGKAVALYFEDKLTEIYSDRTFAPLPEFEQEEDDGEVTEDSDEDFIQPRRKRLKSDERPVHIK
B2: mCherry-ALC1 (natural protein, UniProt Q86WJ1 1-897, looked up)
chain: MERAGATSRGGQAPGFLLRLHTEGRAEAARVQEQDLRQWGLTGIHLRSYQLEGVNWLAQRFHCQNGCILGDEMGLGKTCQTIALFIYLAGRLNDEGPFLILCPLSVLSNWKEEMQRFAPGLSCVTYAGDKEERACLQQDLKQESRFHVLLTTYEICLKDASFLKSFPWSVLVVDEAHRLKNQSSLLHKTLSEFSVVFSLLLTGTPIQNSLQELYSLLSFVEPDLFSKEEVGDFIQRYQDIEKESESASELHKLLQPFLLRRVKAEVATELPKKTEVVIYHGMSALQKKYYKAILMKDLDAFENETAKKVKLQNILSQLRKCVDHPYLFDGVEPEPFEVGDHLTEASGKLHLLDKLLAFLYSGGHRVLLFSQMTQMLDILQDYMDYRGYSYERVDGSVRGEERHLAIKNFGQQPIFVFLLSTRAGGVGMNLTAADTVIFVDSDFNPQNDLQAAARAHRIGQNKSVKVIRLIGRDTVEEIVYRKAASKLQLTNMIIEGGHFTLGAQKPAADADLQLSEILKFGLDKLLASEGSTMDEIDLESILGETKDGQWVSDALPAAEGGSRDQEEGKNHMYLFEGKDYSKEPSKEDRKSFEQLVNLQKTLLEKASQEGRSLRNKGSVLIPGLVEGSTKRKRVLSPEELEDRQKKRQEAAAKRRRLIEEKKRQKEEAEHKKKMAWWESNNYQSFCLPSEESEPEDLENGEESSAELDYQDPDATSLKYVSGDVTHPQAGAEDALIVHCVDDSGHWGRGGLFTALEKRSAEPRKIYELAGKMKDLSLGGVLLFPVDDKESRNKGQDLLALIVAQHRDRSNVLSGIKMAALEEGLKKIFLAAKKKKASVHLPRIGHATKGFNWYGTERLIRKHLAARGIPTYIYYFPRSKSAVLHSQSSSSSSRQLVP

Experiments:
Experiment in all cases: FRET or BRET
mEGFP-ALC1 = target: T1, mEGFP-ALC1
mEGFP-PARP1 [1] = target: T2, mEGFP-PARP1 (UniProt P09874 1-1014)
mEGFP-PARP1 [2] = target: T2, mEGFP-PARP1; remark: listed apart in the source

T2 sequence (P09874 whole entry): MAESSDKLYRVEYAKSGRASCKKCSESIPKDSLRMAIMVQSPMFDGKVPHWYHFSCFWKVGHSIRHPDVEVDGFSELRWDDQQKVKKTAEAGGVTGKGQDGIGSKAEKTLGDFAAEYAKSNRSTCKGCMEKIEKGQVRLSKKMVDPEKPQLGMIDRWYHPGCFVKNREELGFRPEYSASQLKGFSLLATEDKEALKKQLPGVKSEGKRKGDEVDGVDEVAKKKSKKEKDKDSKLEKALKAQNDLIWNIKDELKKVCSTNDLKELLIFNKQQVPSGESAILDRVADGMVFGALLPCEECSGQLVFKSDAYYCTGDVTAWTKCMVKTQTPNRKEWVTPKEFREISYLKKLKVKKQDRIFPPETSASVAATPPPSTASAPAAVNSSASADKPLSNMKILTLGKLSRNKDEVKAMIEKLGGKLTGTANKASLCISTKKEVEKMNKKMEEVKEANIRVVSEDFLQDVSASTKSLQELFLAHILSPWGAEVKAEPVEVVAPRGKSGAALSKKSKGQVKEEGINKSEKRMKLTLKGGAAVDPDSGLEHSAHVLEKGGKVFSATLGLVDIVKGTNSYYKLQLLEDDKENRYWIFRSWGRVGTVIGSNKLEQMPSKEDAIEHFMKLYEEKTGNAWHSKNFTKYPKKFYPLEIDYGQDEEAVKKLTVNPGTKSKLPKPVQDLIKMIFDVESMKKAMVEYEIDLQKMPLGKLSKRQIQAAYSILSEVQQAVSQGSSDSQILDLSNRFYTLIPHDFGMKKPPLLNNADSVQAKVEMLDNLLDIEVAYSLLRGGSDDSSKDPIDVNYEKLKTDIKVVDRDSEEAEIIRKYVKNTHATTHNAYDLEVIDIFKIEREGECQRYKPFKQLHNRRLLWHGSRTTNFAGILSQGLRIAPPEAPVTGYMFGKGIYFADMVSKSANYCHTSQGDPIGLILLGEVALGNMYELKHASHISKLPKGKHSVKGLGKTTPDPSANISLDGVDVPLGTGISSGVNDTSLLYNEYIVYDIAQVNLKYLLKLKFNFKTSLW

Binder	median FRET efficiency (at the damage site) (mEGFP-ALC1)	median FRET efficiency (at the damage site) (mEGFP-PARP1 [1])	median FRET efficiency (1 min after damage) (mEGFP-PARP1 [2])	median FRET efficiency (5 min after damage) (mEGFP-PARP1 [2])
B1	2.2%	–	–	–
B2	–	5.5%	5.8%	3.8%
